Among the data in paper PMC6669743 are fold change of bound amount against HAdV-5 values, retold here.

In the experiment the target is HAdV-5T* virion (mutant HAdV-5 unable to bind to human or murine FX) (human adenovirus 5) (UniProt P04133). Description: co-sedimentation; 2 x 10^11 vp of virus incubated with 250 uL C57BL/6 mouse serum for 30 min at 37 C; virions and bound proteins purified by CsCl gradient ultracentrifugation without cross-linking; LC-MS/MS with label-free quantification normalised to hexon.

“complement component C3 (mouse) (from UniProt P01027) (natural protein)” had a fold change of bound amount against HAdV-5 of 40.2 fold. In turn, “complement component C4b (mouse) (from UniProt P01029) (natural protein)” registered a fold change of bound amount against HAdV-5 of 87.8 fold.
